The data set in a line: soluble on expression in E. coli; label from the status in PepcDB or PDB records.
With “MGSDKIHHHHHHMDYRKIIKEIGRGKNHARDLDLDTARGLYTRMLNGDVPDLEMGSILMALRIKGEGEAEMLGFYEAMQNHTIKLTPPADRPLPVVIPSYNGARKQANLTPLLAILLHKLGFPVVVHGVSEDPTRVLTETIFELMGIIPTLHGGQAQAKLDGRQPVFIPVSALCPPLEKQLAMRWRMGVRNSAHSLAKLATPFAEDAALRLSSVSHPEYVPRVATFFSRIGGRALLMHGTEGEVYANPQRCPQISLIDSRGVQVLHERQSDTYDEPLSLPATKDPEITARWIERCLAGHEPVPQSLKTQMACCLVATGEAATLEDGLARVEQAFSE”, the “soluble on expression in E. coli” value is “not soluble”. With “MNRMSLAALLSCLPLVAWADNPVKLDTPVSGWRAGDGSAANYRQVVNYPASSVNVAADQATTARIRGAIESQPKDRPATLVVNGVSMPLKVDADGSFDRPFAFPSGSNSVEVRNAAGQSRRVQFYHGGGGGEVPAKLRVLLSWDSDNTDLDLHLVTPDGDHVWYGNRSLANGATLDVDVTTGYGPEIIATPTPQKGPYLVYVNYFGGGYGSSEDGAEQAAQDLTTARITLVTEEGTPNEKQETFLVPMRKPGELTLVKRFSYP”, the “soluble on expression in E. coli” value was “not soluble”. Then “MSLKIPEAVNHINVQNNIDLVDGKTNPNKATKALQKNILRVTNSSSSGISEKHLDHCANTVKNFLRKSIAAQSYSKMFSQGTSFKSLNLSIEAPSGARSSFRSLEHLDKVSRHYISEIIQKVHPLSSDERHLLSIIINSNFNFRHQSNSNLSNNILNIKSFDKIQSENIQTHKNTYSEDIKEISNHDFVFFGVEISNHQEKLPLNKTHHTVDFGANAYIIDHDSPYGYMTLTDHFDNAIPPVFYHEHQSFFLDNFKEVVDEVSRYVHGNQGKTDVPIFNTKDMRLGIGLHLIDFIRKSKDQGFREFCYNKNIDPVSLDRIINFVFQLEYHIPRMLSTDNFKKIKLRDISLEDAIKASNYEEINNKVTDKKMAHQALAYSLGNKKADIALYLLSKFNFTKQDVAEMEKMNNNRYCNLYDVEYLLSKDGANYKVLEYFINNGLVDVNKKFQKANSGDTMLDNAMKSKNPKMIDFLLKNGAILGKRFEIEGHHHHHH”, with “soluble”; and “MTSLSSPSPIQHTTSSFLNNFMPTPSLINLQQGYRNPDLGSQDLARLDASRHESIQKVSRKLSTYEEEKNLIENELEEIERTGARLLSIVEQKDNFLASRIRRFMEKSKELVGIETLLRLQLNKHNERIKDGLIDISAARGEESYLQKRFKDTDFLRKISARREIDYDKELSEIFTDDQFHRWVMFKKATLQLLQTESSVSYYIRESNAKLDALHLAPRGTSA”, with “not soluble”. With “SNAMKRKVQVKNITIGEGRPKICVPIIGKNKKDIIKEAKELKDACLDIIEWRVDFFENVENIKEVKEVLYELRSYIHDIPLLFTFRSVVEGGEKLISRDYYTTLNKEISNTGLVDLIDVELFMGDEVIDEVVNFAHKKEVKVIISNHDFNKTPKKEEIVSRLCRMQELGADLPKIAVMPQNEKDVLVLLEATNEMFKIYADRPIITMSMSGMGVISRLCGEIFGSALTFGAAKSVSAPGQISFKELNSVLNLLHKSIN” the entry was “soluble”; with “MGGSHHHHHHGMASALDPAGGPRGVLPRPCRVLVLLNPRGGKGKALQLFRSHVQPLLAEAEISFTLMLTERRNHARELVRSEELGRWDALVVMSGDGLMHEVVNGLMERPDWETAIQKPLCSLPAGSGNALAASLNHYAGYEQVTNEDLLTNCTLLLCRRLLSPMNLLSLHTASGLRLFSVLSLAWGFIADVDLESEKYRRLGEMRFTLGTFLLLAALRTYRGRLAYLPVGRVGSKTPASPVVVQQGPVDAHLVPLEEPVPSHWTVVPDEDFVLVLALLHSHLGSEMFAAPMGRCAAGVMHLFYVRAGVSRAMLLRLFLAMEKGRHMEYECPYLVYVPVVAFRLEPKDGKGVFAVDGELMVSEAVQGQVHPNYFWMVSGCVEPPPSWKPQQMPPPEEPL”, “not soluble”; with “MEKYQALLANNVENTAKEALHQLAYTGREYNNIQDQIETISDLLGHSQSLYDYLREPSKANLTILENMWSSVARNQKLYKQIRFLDTSGTEKVRIKYDFKTSIAGPSLILRDKSAREYFKYAQSLDNEQISAWGIELERDKGELVYPLSPSLRILMPISVNDVRQGYLVLNVDIEYLSSLLNYSPVRDFHIELVKHKGFYIASPDESRLYGDIIPERSQFNFSNMYPDIWPRVVSEQAGYSYSGEHLIAFSSIKFVSNEPLHLIIDLSNEQLSKRATRDINDLIQESLEHHHHHH”, “soluble”.

Turning to “MEAYEKHYQELRQAKNIDGKPFQLIPVPVTRKVVKEADCKGSYLNFYIGNEVVLVPVYGDEHDKLGLQIIEGQFPGRRIVGIYVNELYAYGGMIHCVTQQHIELEHHHHHH”, the “soluble on expression in E. coli” value is reported as “not soluble”. With “FRFGLPIFHTIRWLVNLSKGKLEEPRNREGRPVSKNKKGKIKQPYRFFGEIFESMDQLTETLRRDKRNREKIQATREEWIAGLSHDLKTPLSSIYGYSMMLESKQYDWSPEEGEEMGQVVREKSEYMSKLIEDLNLTYRLKNDALPIERKLTSLIPFFKNVIEDFKKNPFSEGYDISFVSKEEHIEFALDEAWFRRILENLLGNAVKHNGKGTEIQVILEQTKNHISLKVKDNGKGMDEETITHLFNRYYRGTNTKDSTAGTGLGLAIAKELVHLHNGTIHVNSRTNIGTVITILFK” the entry was “not soluble”; with “SLARKRRSTQRFSTTRKLKKERKIGTGKKEAEPLLPDLAEINAPDLMPTLVLNFDNVLASIAYDPVKGYIVRKRPGVDAFLSTLANFYELVLWSDHPFPFIEDLLRARLEWPISFTLYQENMDRRGSSRYRKIVQKGPFFKATRGVACSSGLSETAETLEEIFDNLERLGRRMDRVLYIDIDGSVLPSTQMRNFIKVTPFHGEAQEMLEDHALPELTDLLIGAAVSAGDVREMLLRYGGGADGNVGKR”, “soluble”; with “SVYTYFSAVAGQDGEVDAEELQRCLTQSGINGTYSPFSLETCRIMIAMLDRDHTGKMGFNAFKELWAALNAWKENFMTVDQDGSGTVEHHELRQAIGLMGYRLSPQTLTTIVKRYSKNGRIFFDDYVACCVKLRALTDFFRKRDHLQQGSANFIYDDFLQGTMAI”, “soluble”. With “MIKQDVICYEKEDVVKRNNINITGGGEKTVLLAHGFGCDQNMWRFMLPELEKQFTVIVFDYVGSGQSDLESFSTKRYSSLEGYAKDVEEILVALDLVNVSIIGHSVSSIIAGIASTHVGDRISDITMICPSPCFMNFPPDYVGGFERDDLEELINLMDKNYIGWANYLAPLVMGASHSSELIGELSGSFCTTDPIVAKTFAKATFFSDYRSLLEDISTPALIFQSAKDSLASPEVGQYMAENIPNSQLELIQAEGHCLHMTDAGLITPLLIHFIQNNQTRA” the entry was “soluble”; with “KTLPRDEKEKQIADSKERLKSDTQKVKDAKNADAIKKAFEEGKVNIPQAHIPGDLNKDKEKLLAELKQKADDTEKAIDVDKT”, “not soluble”; with “MYSTLEQLTKHPVFYHFAEISKIPRGSGNEKEISDYLVGFAKERNLEVIQDEALNVIIKKEATTGYENVPAIIIQGHMDMVCEKNQATVHDFEKDPIELRIIGDMLYANQTTLGADNGIAVAYALALLDSKEIPHPALEVVITTEEETTMGGAFAIDPNHFEGKIFINIDSEEDHKLLVSSAGGAKAVETIPVIWDETPANMDAYRLYVGGLKGGHSGMEIDKQRGNANKVLGRVLRDLSAHTEFNISEVHGGLKTNAIPRESVATLLIRTEDVGQVEEKLESWTRVLQEEMRAVDPDVHVTLTKLDETVEKVFAQETQKQLISSLFLIPNGIQSMSMDIKGLVESSTNLGVIETLQDEIKLRNEVRSSVSSLKQHVAEEIKYIAELVGATFEIESEYPEWPYNPNSQIRNLFEKVHQEKYNKEIEIFAVHAGIECSAFVQKMPELDAISFGPDIFNVHTPDEHISISSVVNNWGFFIDVMKGTKELAK”, “not soluble”.

Regarding “MRNIQIALTKGRLEKHVIPLFEQIGIDCSELKNKGRKLVFQSKNTDISFILVKAVDVATYVEHGVADIGVVGKDILMENEKDIYEMLDLGVGVCKFCVASIPTYNPKSYRKKCIATKYPHITSNYFHNKGEDVEIIKIEGSVEIAPILGLADAIVDIVETGKTLQENGLIVFEEMYSISARMIVNKAALKTKKDEIFSIINMMEQEILSGK”, the “soluble on expression in E. coli” value is “not soluble”.

For the sequence “RSVAYDLIFGNKNTTKYYAQFVKEHKTHLYEQIKQINNDEFRFVEKTKRHNLG”, the “soluble on expression in E. coli” value is “not soluble”.

The values above are taken from the DeepSol protein solubility set.
